Assay [1] concerns the target T1, CBF1/RBPJk (UniProt Q06330 1-500).
T1 construct: also called CBF1 tethering protein
Description: EMSA supershift with heparin-agarose purified CBF1 and Cp CBF1 site probe; phosphoimager, relative to wild-type EBNA2(252-425). (A gel shift assay detects complexes by their altered migration in electrophoresis.)

Assay [2] deals with T1, CBF1/RBPJk. The assay can be described thus: EMSA, against wild-type EBNA2 252-425.
Assay [3] deals with T1, CBF1/RBPJk. Description: EMSA with two-fold increases in peptide amount, against type A EBNA2 252-425.

The values that follow come from patent US6495144 (Johns Hopkins, dated 2002).

T1 sequence (Q06330 whole entry): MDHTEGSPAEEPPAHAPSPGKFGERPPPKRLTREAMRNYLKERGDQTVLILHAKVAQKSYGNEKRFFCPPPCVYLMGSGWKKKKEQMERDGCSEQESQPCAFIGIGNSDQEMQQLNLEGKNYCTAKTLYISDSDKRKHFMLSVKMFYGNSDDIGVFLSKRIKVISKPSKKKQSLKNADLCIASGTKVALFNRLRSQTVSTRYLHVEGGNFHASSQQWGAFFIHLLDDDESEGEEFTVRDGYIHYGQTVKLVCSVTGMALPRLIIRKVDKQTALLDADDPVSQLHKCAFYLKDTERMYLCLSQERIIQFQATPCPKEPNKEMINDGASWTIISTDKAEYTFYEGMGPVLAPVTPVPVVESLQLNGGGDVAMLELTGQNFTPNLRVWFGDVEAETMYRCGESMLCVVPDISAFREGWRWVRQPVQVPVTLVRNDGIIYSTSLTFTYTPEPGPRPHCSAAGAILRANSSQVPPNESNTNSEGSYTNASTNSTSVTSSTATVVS

B1: wild-type EBNA2 peptide comprised of amino acids 252-425 (type A) (other)
chain: LHVPDQSMHPLTHQSTPNDPDSPEPRSPTVFYNIPPMPLPPSQLPPPAAPAQPPPGVINDQQLHHLPSGPPWWPPICDPPQPSKTQGQSRGQSRGRGRGRGRGRGKGKSRDKQRKPGGPWRPEPNTSSPSMPELSPVLGLHQGQGAGDSPTPGPSNAAPVCRNSHTATPNVSPI
notes: range 252-425; In vitro transcribed and translated, labeled with 35S-methionine; also called aa252-425 (wild-type); E2 252-425
For the molecule B1, the “% Complex formation” value in assay [1] came to 100%.

B2: EBNA2 252-425 GP320SR (CR6) (other)
chain: LHVPDQSMHPLTHQSTPNDPDSPEPRSPTVFYNIPPMPLPPSQLPPPAAPAQPPPGVINDQQLHHLPSSRPWWPPICDPPQPSKTQGQSRGQSRGRGRGRGRGRGKGKSRDKQRKPGGPWRPEPNTSSPSMPELSPVLGLHQGQGAGDSPTPGPSNAAPVCRNSHTATPNVSPI
notes: range 252-425; In vitro transcribed and translated
With B2, in assay [1], the “% Complex formation” value amounted to 90%.

B3: EBNA2 252-425 LGL389SRT (CR7) (other)
chain: LHVPDQSMHPLTHQSTPNDPDSPEPRSPTVFYNIPPMPLPPSQLPPPAAPAQPPPGVINDQQLHHLPSGPPWWPPICDPPQPSKTQGQSRGQSRGRGRGRGRGRGKGKSRDKQRKPGGPWRPEPNTSSPSMPELSPVSRTHQGQGAGDSPTPGPSNAAPVCRNSHTATPNVSPI
notes: range 252-425; In vitro transcribed and translated; also called CR7 mutation
Consider B3, for which the “fold reduction in the amounts of EBNA2/CBF1 complex formed” value in assay [2] is approximately 2 fold. Moreover, in assay [1], the “% Complex formation” value is 50%.

B4: EBNA2 252-425 SR360VD (PKC) (other)
chain: LHVPDQSMHPLTHQSTPNDPDSPEPRSPTVFYNIPPMPLPPSQLPPPAAPAQPPPGVINDQQLHHLPSGPPWWPPICDPPQPSKTQGQSRGQSRGRGRGRGRGRGKGKVDDKQRKPGGPWRPEPNTSSPSMPELSPVLGLHQGQGAGDSPTPGPSNAAPVCRNSHTATPNVSPI
notes: range 252-425; In vitro transcribed and translated; also called PKC mutation
With B4, the “fold reduction in the amounts of EBNA2/CBF1 complex formed” value in assay [2] is approximately 2 fold. The “% Complex formation” value in assay [1] was 60%.

B5: EBNA2 252-425 PI326SR (CR6) (other)
chain: LHVPDQSMHPLTHQSTPNDPDSPEPRSPTVFYNIPPMPLPPSQLPPPAAPAQPPPGVINDQQLHHLPSGPPWWPSRCDPPQPSKTQGQSRGQSRGRGRGRGRGRGKGKSRDKQRKPGGPWRPEPNTSSPSMPELSPVLGLHQGQGAGDSPTPGPSNAAPVCRNSHTATPNVSPI
notes: as for B2
For B5, the “% Complex formation” value in assay [1] was 5%.

B6: EBNA2 252-425 WW323SR (CR6) (other)
chain: LHVPDQSMHPLTHQSTPNDPDSPEPRSPTVFYNIPPMPLPPSQLPPPAAPAQPPPGVINDQQLHHLPSGPPSRPPICDPPQPSKTQGQSRGQSRGRGRGRGRGRGKGKSRDKQRKPGGPWRPEPNTSSPSMPELSPVLGLHQGQGAGDSPTPGPSNAAPVCRNSHTATPNVSPI
notes: as for B2
B6: the “% Complex formation” value in assay [1] was less than 1%.

B7: type B EBNA2 comprising amino acids 216-392 (other)
chain: GHQLSLPPHPPPHQSTPHCSSDSTGLPPPPTSYSIPSMTLSPEPLPPPAAPAHPLPGVIYDQQALPPTPGPPWWPPVRDPTPTTQTPPTNTKQGPDQGQGRGRWRGRGRSKGRGRMHKLPEPRRPGPDTSSPSMPQLSPVVSLHQGQGPENSPTPGPSTAGPVCRVTPSATPDISPI
notes: range 216-392; Prepared by in vitro transcription and translation; gene provided by Dr. Elliott Kieff; also called type B peptide
As to B7, in assay [3], the “fold more peptide required than type A EBNA2 for conversion of all the CBF1 to the supershifted complex” value worked out at 2 fold.
